The values below come from patent US20220227853A1 (US Dept. of Health and Human Services, published 2022).

This assay concerns the target T1, full-length PfCSP on the surface of transgenic P. berghei sporozoites (Pb-PfCSP) (Plasmodium falciparum, UniProt Q7K740 19-374).
T1 construct: whole, on cells; also called Pb-PfCSP SPZ; Pb-PfCSP SPZ GFP/Luc
In words: flow cytometry on Pb-PfCSP sporozoites, mAb 20 µg/mL, MFI. (Flow cytometry measures light scatter and fluorescence of single cells or particles in a stream.)

T1 sequence (Q7K740 19-374): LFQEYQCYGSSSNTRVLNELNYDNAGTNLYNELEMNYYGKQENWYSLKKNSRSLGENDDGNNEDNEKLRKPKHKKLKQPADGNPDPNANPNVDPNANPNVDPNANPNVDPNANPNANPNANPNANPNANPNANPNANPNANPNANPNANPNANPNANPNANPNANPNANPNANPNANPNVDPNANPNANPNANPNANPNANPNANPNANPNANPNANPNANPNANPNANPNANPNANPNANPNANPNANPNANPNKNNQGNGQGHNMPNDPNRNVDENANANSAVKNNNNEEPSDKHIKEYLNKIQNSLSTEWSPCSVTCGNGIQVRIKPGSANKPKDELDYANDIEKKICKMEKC

B1: CIS43 human monoclonal antibody (antibody, V domains shown)
VH: QVQLVQSGAEVKKPGASVKVSCKASGYTFTSYAIHWVRQAPGQRLEWMGWIKAGNGNTRYSQKFQDRVTITRDTSTTTAYMELSSLRSEDTAVYYCALLTVLTPDDAFDIWGQGTMVTVSS
VL: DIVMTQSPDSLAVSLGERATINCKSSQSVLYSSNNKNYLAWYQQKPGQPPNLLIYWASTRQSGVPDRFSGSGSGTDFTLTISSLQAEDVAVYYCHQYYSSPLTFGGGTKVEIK
notes: also called CIS43 IgG
For B1, the binding result is recorded as “binds”.
